Experimental data published in patent publication US20260151504A1, “SYNTHETIC CELLS COMPRISING TNF-RELATED APOPTOSIS-INDUCING LIGAND (TRAIL) AND METHODS OF USING THE SAME” (Slingshot Biosciences, Inc., priority 2023, published 2026).
Values belong to the substance of their own block, whether it stands above or below them.

What was measured:
streptavidin [1] = target: streptavidin (UniProt P22629); experiment: flow cytometry, antibody staining of STV smooth hydrogel microspheres, BD Quantibrite PE standard curve
Sequence of streptavidin (P22629 37-163 limits assumed): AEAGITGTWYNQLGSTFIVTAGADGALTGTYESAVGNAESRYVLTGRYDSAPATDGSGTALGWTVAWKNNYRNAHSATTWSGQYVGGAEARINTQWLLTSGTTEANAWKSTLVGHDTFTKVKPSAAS

streptavidin [2] = target: streptavidin (UniProt P22629); experiment: flow cytometry, antibody staining of STV porous hydrogel microspheres, BD Quantibrite PE standard curve
streptavidin [3] = target: streptavidin (UniProt P22629); experiment: flow cytometry, antibody staining of STV magnetic beads, BD Quantibrite PE standard curve
[4] = target: TRAIL receptors DR4 and/or DR5; experiment: cell-based or functional assay

- # of STV molecules/bead (molecules/bead) (streptavidin [1]): 20100
- # of STV molecules/bead (molecules/bead) (streptavidin [2]): 20100
- # of STV molecules/bead (molecules/bead) (streptavidin [3]): 120000
Substance: PE-anti-streptavidin antibody (BioLegend, clone: 3A20.2)

- Early Stage Apoptotic (7-AAD-/Annexin V+), Jeko-1, 24 Hrs.; TRAIL Magnetic Beads [4]: 25.8%
- Early Stage Apoptotic (7-AAD-/Annexin V+), Jeko-1, 24 Hrs.; TRAIL Porous Hydrogels [4]: 52.1%
- Early Stage Apoptotic (7-AAD-/Annexin V+), Jeko-1, 24 Hrs.; TRAIL Smooth Hydrogels [4]: 44.8%
- Early Stage Apoptotic (7-AAD-/Annexin V+), Jeko-1, 24 Hrs.; TRAIL encapsulated PLGA [4]: 3.08%
- Early Stage Apoptotic (7-AAD-/Annexin V+), Jeko-1, 48 Hrs.; TRAIL Magnetic Beads [4]: 6.55%
- Early Stage Apoptotic (7-AAD-/Annexin V+), Jeko-1, 48 Hrs.; TRAIL Porous Hydrogels [4]: 5.77%
- Early Stage Apoptotic (7-AAD-/Annexin V+), Jeko-1, 48 Hrs.; TRAIL Smooth Hydrogels [4]: 11.9%
- Early Stage Apoptotic (7-AAD-/Annexin V+), Jeko-1, 48 Hrs.; TRAIL encapsulated PLGA [4]: 3.07%
- Early Stage Apoptotic (7-AAD-/Annexin V+), Jurkat, 24 Hrs.; TRAIL Magnetic Beads [4]: 22.3%
- Early Stage Apoptotic (7-AAD-/Annexin V+), Jurkat, 24 Hrs.; TRAIL Porous Hydrogels [4]: 41.9%
- Early Stage Apoptotic (7-AAD-/Annexin V+), Jurkat, 24 Hrs.; TRAIL Smooth Hydrogels [4]: 39%
- Early Stage Apoptotic (7-AAD-/Annexin V+), Jurkat, 24 Hrs.; TRAIL encapsulated PLGA [4]: 7.86%
- Early Stage Apoptotic (7-AAD-/Annexin V+), Jurkat, 48 Hrs.; TRAIL Magnetic Beads [4]: 13.8%
- Early Stage Apoptotic (7-AAD-/Annexin V+), Jurkat, 48 Hrs.; TRAIL Porous Hydrogels [4]: 22.5%
- Early Stage Apoptotic (7-AAD-/Annexin V+), Jurkat, 48 Hrs.; TRAIL Smooth Hydrogels [4]: 18.3%
- Early Stage Apoptotic (7-AAD-/Annexin V+), Jurkat, 48 Hrs.; TRAIL encapsulated PLGA [4]: 3.1%
- Late Stage Apoptotic (7-AAD+/Annexin V+), Jeko-1, 24 Hrs.; TRAIL Magnetic Beads [4]: 20.1%
- Late Stage Apoptotic (7-AAD+/Annexin V+), Jeko-1, 24 Hrs.; TRAIL Porous Hydrogels [4]: 33.9%
- Late Stage Apoptotic (7-AAD+/Annexin V+), Jeko-1, 24 Hrs.; TRAIL Smooth Hydrogels [4]: 16.9%
- Late Stage Apoptotic (7-AAD+/Annexin V+), Jeko-1, 24 Hrs.; TRAIL encapsulated PLGA [4]: 5.34%
- Late Stage Apoptotic (7-AAD+/Annexin V+), Jeko-1, 48 Hrs.; TRAIL Magnetic Beads [4]: 44.1%
- Late Stage Apoptotic (7-AAD+/Annexin V+), Jeko-1, 48 Hrs.; TRAIL Porous Hydrogels [4]: 87.5%
- Late Stage Apoptotic (7-AAD+/Annexin V+), Jeko-1, 48 Hrs.; TRAIL Smooth Hydrogels [4]: 43.1%
- Late Stage Apoptotic (7-AAD+/Annexin V+), Jeko-1, 48 Hrs.; TRAIL encapsulated PLGA [4]: 13.9%
- Late Stage Apoptotic (7-AAD+/Annexin V+), Jurkat, 24 Hrs.; TRAIL Magnetic Beads [4]: 14.9%
- Late Stage Apoptotic (7-AAD+/Annexin V+), Jurkat, 24 Hrs.; TRAIL Porous Hydrogels [4]: 18.8%
- Late Stage Apoptotic (7-AAD+/Annexin V+), Jurkat, 24 Hrs.; TRAIL Smooth Hydrogels [4]: 18%
- Late Stage Apoptotic (7-AAD+/Annexin V+), Jurkat, 24 Hrs.; TRAIL encapsulated PLGA [4]: 3.17%
- Late Stage Apoptotic (7-AAD+/Annexin V+), Jurkat, 48 Hrs.; TRAIL Magnetic Beads [4]: 32.9%
- Late Stage Apoptotic (7-AAD+/Annexin V+), Jurkat, 48 Hrs.; TRAIL Porous Hydrogels [4]: 63.5%
- Late Stage Apoptotic (7-AAD+/Annexin V+), Jurkat, 48 Hrs.; TRAIL Smooth Hydrogels [4]: 43%
- Late Stage Apoptotic (7-AAD+/Annexin V+), Jurkat, 48 Hrs.; TRAIL encapsulated PLGA [4]: 5.7%
- Live Cells (7-AAD-/Annexin V-), Jeko-1, 24 Hrs.; TRAIL Magnetic Beads [4]: 54%
- Live Cells (7-AAD-/Annexin V-), Jeko-1, 24 Hrs.; TRAIL Porous Hydrogels [4]: 13.6%
- Live Cells (7-AAD-/Annexin V-), Jeko-1, 24 Hrs.; TRAIL Smooth Hydrogels [4]: 38.2%
- Live Cells (7-AAD-/Annexin V-), Jeko-1, 24 Hrs.; TRAIL encapsulated PLGA [4]: 91.5%
- Live Cells (7-AAD-/Annexin V-), Jeko-1, 48 Hrs.; TRAIL Magnetic Beads [4]: 48.2%
- Live Cells (7-AAD-/Annexin V-), Jeko-1, 48 Hrs.; TRAIL Porous Hydrogels [4]: 5.18%
- Live Cells (7-AAD-/Annexin V-), Jeko-1, 48 Hrs.; TRAIL Smooth Hydrogels [4]: 44.8%
- Live Cells (7-AAD-/Annexin V-), Jeko-1, 48 Hrs.; TRAIL encapsulated PLGA [4]: 82.4%
- Live Cells (7-AAD-/Annexin V-), Jurkat, 24 Hrs.; TRAIL Magnetic Beads [4]: 62.5%
- Live Cells (7-AAD-/Annexin V-), Jurkat, 24 Hrs.; TRAIL Porous Hydrogels [4]: 39.1%
- Live Cells (7-AAD-/Annexin V-), Jurkat, 24 Hrs.; TRAIL Smooth Hydrogels [4]: 42.7%
- Live Cells (7-AAD-/Annexin V-), Jurkat, 24 Hrs.; TRAIL encapsulated PLGA [4]: 88.6%
- Live Cells (7-AAD-/Annexin V-), Jurkat, 48 Hrs.; TRAIL Magnetic Beads [4]: 49.7%
- Live Cells (7-AAD-/Annexin V-), Jurkat, 48 Hrs.; TRAIL Porous Hydrogels [4]: 12%
- Live Cells (7-AAD-/Annexin V-), Jurkat, 48 Hrs.; TRAIL Smooth Hydrogels [4]: 36%
- Live Cells (7-AAD-/Annexin V-), Jurkat, 48 Hrs.; TRAIL encapsulated PLGA [4]: 85.6%
- percentage of apoptotic cells (Annexin V-positive), Jeko-1, 24 h; TRAIL attached to magnetic beads [4]: 47.1%
- percentage of apoptotic cells (Annexin V-positive), Jeko-1, 24 h; TRAIL encapsulated in PLGA microspheres [4]: 9.69%
- percentage of apoptotic cells (Annexin V-positive), Jeko-1, 24 h; TRAIL on porous hydrogel microspheres [4]: 86.3%
- percentage of apoptotic cells (Annexin V-positive), Jeko-1, 24 h; TRAIL on smooth hydrogel microspheres [4]: 66.3%
- percentage of apoptotic cells, Jeko-1, 48 hours; TRAIL attached to magnetic beads [4]: 50.1%
- percentage of apoptotic cells, Jeko-1, 48 hours; TRAIL encapsulated in PLGA microspheres [4]: 17.2%
- percentage of apoptotic cells, Jeko-1, 48 hours; TRAIL on porous hydrogel microspheres [4]: 93%
- percentage of apoptotic cells, Jurkat, 24 h; TRAIL attached to magnetic beads [4]: 39.5%
- percentage of apoptotic cells, Jurkat, 24 h; TRAIL encapsulated in PLGA microspheres [4]: 6.45%
- percentage of apoptotic cells, Jurkat, 24 h; TRAIL on porous hydrogel microspheres [4]: 78%
- percentage of apoptotic cells, Jurkat, 48 h; TRAIL attached to magnetic beads [4]: 57.2%
- percentage of apoptotic cells, Jurkat, 48 h; TRAIL encapsulated in PLGA microspheres [4]: 7.87%
- percentage of apoptotic cells, Jurkat, 48 h; TRAIL on porous hydrogel microspheres [4]: 81.4%
- percentage of early apoptotic cells, Jeko-1, 24 h; TRAIL on porous hydrogel microspheres (text value; Table 4A prints 52.1) [4]: 52.3%
Substance: Biotinylated Fc-TRAIL: active fragment of the human TRAIL protein comprising SEQ ID NO: 2 with a mouse IgG2a-Fc Tag at the N-terminus (ACROBiosystems TRLH52591MG), biotinylated with Oyo-link single biotin (from UniProt P50591 114-281) (Fc fusion)
- Necrotic (7-AAD+/Annexin V-), Jeko-1, 24 Hrs.; TRAIL Magnetic Beads [4]: 0.12%
- Necrotic (7-AAD+/Annexin V-), Jeko-1, 24 Hrs.; TRAIL Porous Hydrogels [4]: 0.34%
- Necrotic (7-AAD+/Annexin V-), Jeko-1, 24 Hrs.; TRAIL Smooth Hydrogels [4]: 0.1%
- Necrotic (7-AAD+/Annexin V-), Jeko-1, 24 Hrs.; TRAIL encapsulated PLGA [4]: 0.088%
- Necrotic (7-AAD+/Annexin V-), Jeko-1, 48 Hrs.; TRAIL Magnetic Beads [4]: 1.08%
- Necrotic (7-AAD+/Annexin V-), Jeko-1, 48 Hrs.; TRAIL Smooth Hydrogels [4]: 0.17%
- Necrotic (7-AAD+/Annexin V-), Jeko-1, 48 Hrs.; TRAIL encapsulated PLGA [4]: 0.62%
- Necrotic (7-AAD+/Annexin V-), Jurkat, 24 Hrs.; TRAIL Magnetic Beads [4]: 0.28%
- Necrotic (7-AAD+/Annexin V-), Jurkat, 24 Hrs.; TRAIL Porous Hydrogels [4]: 0.18%
- Necrotic (7-AAD+/Annexin V-), Jurkat, 24 Hrs.; TRAIL Smooth Hydrogels [4]: 0.23%
- Necrotic (7-AAD+/Annexin V-), Jurkat, 24 Hrs.; TRAIL encapsulated PLGA [4]: 0.36%
- Necrotic (7-AAD+/Annexin V-), Jurkat, 48 Hrs.; TRAIL Magnetic Beads [4]: 3.61%
- Necrotic (7-AAD+/Annexin V-), Jurkat, 48 Hrs.; TRAIL Porous Hydrogels [4]: 2.1%
- Necrotic (7-AAD+/Annexin V-), Jurkat, 48 Hrs.; TRAIL Smooth Hydrogels [4]: 2.67%
- Necrotic (7-AAD+/Annexin V-), Jurkat, 48 Hrs.; TRAIL encapsulated PLGA [4]: 5.61%

- Early Stage Apoptotic (7-AAD-/Annexin V+), Jeko-1, 24 Hrs.; Soluble TRAIL [4]: 35.8%
- Early Stage Apoptotic (7-AAD-/Annexin V+), Jeko-1, 48 Hrs.; Soluble TRAIL [4]: 9.88%
- Early Stage Apoptotic (7-AAD-/Annexin V+), Jurkat, 24 Hrs.; Soluble TRAIL [4]: 51.1%
- Early Stage Apoptotic (7-AAD-/Annexin V+), Jurkat, 48 Hrs.; Soluble TRAIL [4]: 20.4%
- Late Stage Apoptotic (7-AAD+/Annexin V+), Jeko-1, 24 Hrs.; Soluble TRAIL [4]: 26.4%
- Late Stage Apoptotic (7-AAD+/Annexin V+), Jeko-1, 48 Hrs.; Soluble TRAIL [4]: 59.7%
- Late Stage Apoptotic (7-AAD+/Annexin V+), Jurkat, 24 Hrs.; Soluble TRAIL [4]: 22.5%
- Late Stage Apoptotic (7-AAD+/Annexin V+), Jurkat, 48 Hrs.; Soluble TRAIL [4]: 56.9%
- Live Cells (7-AAD-/Annexin V-), Jeko-1, 24 Hrs.; Soluble TRAIL [4]: 37.8%
- Live Cells (7-AAD-/Annexin V-), Jeko-1, 48 Hrs.; Soluble TRAIL [4]: 30.2%
- Live Cells (7-AAD-/Annexin V-), Jurkat, 24 Hrs.; Soluble TRAIL [4]: 26.3%
- Live Cells (7-AAD-/Annexin V-), Jurkat, 48 Hrs.; Soluble TRAIL [4]: 21.3%
- percentage of apoptotic cells (Annexin V-positive), Jeko-1, 24 h; soluble TRAIL protein [4]: 60.7%
- percentage of apoptotic cells, Jeko-1, 48 hours; soluble TRAIL protein [4]: 69.8%
- percentage of apoptotic cells, Jurkat, 24 h; soluble TRAIL protein [4]: 72.9%
- percentage of apoptotic cells, Jurkat, 48 h; soluble TRAIL protein [4]: 73%
Substance: soluble TRAIL protein (ligand)
- Necrotic (7-AAD+/Annexin V-), Jeko-1, 24 Hrs.; Soluble TRAIL [4]: 0.076%
- Necrotic (7-AAD+/Annexin V-), Jeko-1, 48 Hrs.; Soluble TRAIL [4]: 0.16%
- Necrotic (7-AAD+/Annexin V-), Jurkat, 24 Hrs.; Soluble TRAIL [4]: 0.11%
- Necrotic (7-AAD+/Annexin V-), Jurkat, 48 Hrs.; Soluble TRAIL [4]: 1.42%
